From IntAct's records for PubMed 29039417

B1: BBSome complex member BBS5 (Homo sapiens), Q8N3I7 (parent)
chain: MSVLDALWEDRDVRFDLSAQQMKTRPGEVLIDCLDSIEDTKGNNGDRGRLLVTNLRILWHSLALSRVNVSVGYNCILNITTRTANSKLRGQTEALYILTKCNSTRFEFIFTNLVPGSPRLFTSVMAVHRAYETSKMYRDFKLRSALIQNKQLRLLPQEHVYDKINGVWNLSSDQGNLGTFFITNVRIVWHANMNDSFNVSIPYLQIRSIKIRDSKFGLALVIESSQQSGGYVLGFKIDPVEKLQESVKEINSLHKVYSASPIFGVDYEMEEKPQPLEALTVEQIQDDVEIDSDGHTDAFVAYFADGNKQQDREPVFSEELGLAIEKLKDGFTLQGLWEVMS
partner: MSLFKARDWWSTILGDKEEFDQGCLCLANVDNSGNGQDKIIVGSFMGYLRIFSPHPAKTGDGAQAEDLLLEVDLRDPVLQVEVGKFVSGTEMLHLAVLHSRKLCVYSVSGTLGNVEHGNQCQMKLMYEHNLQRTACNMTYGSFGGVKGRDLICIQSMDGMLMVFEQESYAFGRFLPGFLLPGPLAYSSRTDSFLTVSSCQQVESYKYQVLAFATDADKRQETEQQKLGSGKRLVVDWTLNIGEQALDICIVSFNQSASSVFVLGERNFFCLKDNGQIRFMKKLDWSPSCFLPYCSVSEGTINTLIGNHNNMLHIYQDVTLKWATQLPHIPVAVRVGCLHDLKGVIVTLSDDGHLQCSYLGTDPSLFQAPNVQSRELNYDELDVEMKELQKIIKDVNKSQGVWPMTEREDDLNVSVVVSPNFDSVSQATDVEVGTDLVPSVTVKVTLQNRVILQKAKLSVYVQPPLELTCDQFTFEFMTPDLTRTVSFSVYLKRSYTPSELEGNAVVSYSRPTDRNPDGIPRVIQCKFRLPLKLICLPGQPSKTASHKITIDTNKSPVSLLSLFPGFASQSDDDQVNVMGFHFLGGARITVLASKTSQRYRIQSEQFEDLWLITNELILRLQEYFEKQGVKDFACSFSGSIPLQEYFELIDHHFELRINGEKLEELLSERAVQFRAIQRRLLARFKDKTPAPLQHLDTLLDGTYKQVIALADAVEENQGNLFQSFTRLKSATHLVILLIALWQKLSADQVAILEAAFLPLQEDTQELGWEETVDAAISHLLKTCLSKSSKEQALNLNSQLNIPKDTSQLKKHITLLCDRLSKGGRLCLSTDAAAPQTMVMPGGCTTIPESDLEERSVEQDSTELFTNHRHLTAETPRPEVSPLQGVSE

Variants of: B1
Conditions: with pthb1_human BBS9, Q3SYG4
In the case of I31K, the “effect of a mutation on the interaction” value is reported as “with no effect”.
I31A was tested, and the “effect of a mutation on the interaction” value was “disrupting interaction strength”.
For I31E, the “effect of a mutation on the interaction” value was “with no effect”.
In the case of C33A, the “effect of a mutation on the interaction” value is reported as “with no effect”.
C33K was tested, and the “effect of a mutation on the interaction” value was “with no effect”.
With C33E the “effect of a mutation on the interaction” value was “with no effect”.
With E28K the “effect of a mutation on the interaction” value was “disrupting interaction strength”.
E28A was tested, and the “effect of a mutation on the interaction” value was “disrupting interaction strength”.
G42E was tested, and the “effect of a mutation on the interaction” value was “disrupting interaction strength”.
In the case of G42A, the “effect of a mutation on the interaction” value is reported as “with no effect”.
For G42K, the “effect of a mutation on the interaction” value was “with no effect”.
For P26A, the “effect of a mutation on the interaction” value was “with no effect”.
With P26K the “effect of a mutation on the interaction” value was “with no effect”.
In the case of P26E, the “effect of a mutation on the interaction” value is reported as “disrupting interaction strength”.
V29K was tested, and the “effect of a mutation on the interaction” value was “disrupting interaction strength”.
V29E was tested, and the “effect of a mutation on the interaction” value was “with no effect”.
In the case of V29A, the “effect of a mutation on the interaction” value is reported as “disrupting interaction strength”.
L34A was tested, and the “effect of a mutation on the interaction” value was “with no effect”.
In the case of L34K, the “effect of a mutation on the interaction” value is reported as “with no effect”.
L34E was tested, and the “effect of a mutation on the interaction” value was “with no effect”.
D39E was tested, and the “effect of a mutation on the interaction” value was “with no effect”.
For D39A, the “effect of a mutation on the interaction” value was “with no effect”.
With D39K the “effect of a mutation on the interaction” value was “with no effect”.
With R25E the “effect of a mutation on the interaction” value was “disrupting interaction strength”.
With R25K the “effect of a mutation on the interaction” value was “disrupting interaction strength”.
With R25A the “effect of a mutation on the interaction” value was “with no effect”.
In the case of Q21K, the “effect of a mutation on the interaction” value is reported as “with no effect”.
In the case of Q21E, the “effect of a mutation on the interaction” value is reported as “with no effect”.
R47E was tested, and the “effect of a mutation on the interaction” value was “with no effect”.
With R47K the “effect of a mutation on the interaction” value was “with no effect”.
R47A was tested, and the “effect of a mutation on the interaction” value was “with no effect”.
For N44K, the “effect of a mutation on the interaction” value was “with no effect”.
In the case of N44E, the “effect of a mutation on the interaction” value is reported as “with no effect”.
In the case of N44A, the “effect of a mutation on the interaction” value is reported as “with no effect”.
D35E was tested, and the “effect of a mutation on the interaction” value was “with no effect”.
In the case of D35K, the “effect of a mutation on the interaction” value is reported as “with no effect”.
With D35A the “effect of a mutation on the interaction” value was “with no effect”.
With L30A the “effect of a mutation on the interaction” value was “with no effect”.
For L30K, the “effect of a mutation on the interaction” value was “with no effect”.
L30E was tested, and the “effect of a mutation on the interaction” value was “with no effect”.
With L30P the “effect of a mutation on the interaction” value was “disrupting interaction strength”.
D46N was tested, and the “effect of a mutation on the interaction” value was “disrupting interaction strength”.
For D46E, the “effect of a mutation on the interaction” value was “with no effect”.
With D46A the “effect of a mutation on the interaction” value was “with no effect”.
For D46K, the “effect of a mutation on the interaction” value was “with no effect”.
In the case of T40A, the “effect of a mutation on the interaction” value is reported as “with no effect”.
For T40E, the “effect of a mutation on the interaction” value was “with no effect”.
For T40K, the “effect of a mutation on the interaction” value was “with no effect”.
For G45A, the “effect of a mutation on the interaction” value was “with no effect”.
For G45K, the “effect of a mutation on the interaction” value was “with no effect”.
With G45E the “effect of a mutation on the interaction” value was “with no effect”.
For K23E, the “effect of a mutation on the interaction” value was “with no effect”.
With K23A the “effect of a mutation on the interaction” value was “with no effect”.
K41E was tested, and the “effect of a mutation on the interaction” value was “with no effect”.
In the case of K41A, the “effect of a mutation on the interaction” value is reported as “with no effect”.
M22A was tested, and the “effect of a mutation on the interaction” value was “disrupting interaction strength”.
M22E was tested, and the “effect of a mutation on the interaction” value was “disrupting interaction strength”.
For M22K, the “effect of a mutation on the interaction” value was “disrupting interaction strength”.
With G48K the “effect of a mutation on the interaction” value was “with no effect”.
G48E was tested, and the “effect of a mutation on the interaction” value was “with no effect”.
In the case of G48A, the “effect of a mutation on the interaction” value is reported as “with no effect”.
With G48S the “effect of a mutation on the interaction” value was “disrupting interaction strength”.
With E38A the “effect of a mutation on the interaction” value was “with no effect”.
For E38K, the “effect of a mutation on the interaction” value was “with no effect”.
S36A was tested, and the “effect of a mutation on the interaction” value was “with no effect”.
With S36K the “effect of a mutation on the interaction” value was “with no effect”.
With S36E the “effect of a mutation on the interaction” value was “with no effect”.
With N43K the “effect of a mutation on the interaction” value was “with no effect”.
With N43A the “effect of a mutation on the interaction” value was “with no effect”.
In the case of N43E, the “effect of a mutation on the interaction” value is reported as “with no effect”.
In the case of G27A, the “effect of a mutation on the interaction” value is reported as “disrupting interaction strength”.
For G27E, the “effect of a mutation on the interaction” value was “disrupting interaction strength”.
G27R was tested, and the “effect of a mutation on the interaction” value was “disrupting interaction strength”.
In the case of G27K, the “effect of a mutation on the interaction” value is reported as “with no effect”.
D32A was tested, and the “effect of a mutation on the interaction” value was “with no effect”.
D32G was tested, and the “effect of a mutation on the interaction” value was “disrupting interaction strength”.
With D32E the “effect of a mutation on the interaction” value was “with no effect”.
With D32K the “effect of a mutation on the interaction” value was “with no effect”.
For T24E, the “effect of a mutation on the interaction” value was “with no effect”.
In the case of T24A, the “effect of a mutation on the interaction” value is reported as “with no effect”.
In the case of T24K, the “effect of a mutation on the interaction” value is reported as “with no effect”.
For I37E, the “effect of a mutation on the interaction” value was “with no effect”.
I37A was tested, and the “effect of a mutation on the interaction” value was “with no effect”.
With I37K the “effect of a mutation on the interaction” value was “with no effect”.
